The text below walks through data of the domain aggregation screens of Martell et al. (2025).

The data set can be described thus: soluble fraction after stress (log2 fold change); higher = more stays soluble; pooled small domains, quantitative proteomics. The following applies: stress: 50 degC. The gist of the method: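 Each library was heated to 50°C as a stress step. The libraries, made up of small protein domains, were pooled and analysed at high throughput by quantitative proteomics. The reported value is the base-two logarithm of the fold change in each protein's soluble amount after stress, taken as a measure of aggregation propensity. The higher the value, the more protein stays in solution.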

On to “HMKNNLKGSPIIIAGGYGVGSKENFNLLFDLAKVLNAEVGASRAAVDAGFVEHDRQIGQTGVTVRP”, for which the “soluble fraction (log2)” value came out at 0.0735. Under “HMLLQTAVISTDIVNMRAEPTTNSSVIRKLTKGSDITINQEKDGWYKISDDQGNSGWIVTWAAKPT” stands 0.0497; under “HMSKQVDVVIYILENTKAADNTYIGTYRKTADGAGVSLDTATKVMRKLQENNFIKKVQNGVYQISPLIMM”, -0.889; under “HMNIAAVIGQTGVLQDDLKAGEQGTVKADNKLWTAVLAEGEEAVKKEERVDIVAVEGVKLIVRRNI”, 0.0397.

Regarding “HMSVIKERLTEFLTYKGIGQIKFAEAAGLSRGFVNVLGDGISSKSLNKISQAFPELNTLWLTTGEGEML”, the “soluble fraction (log2)” value is -1.91. Next, “HMDPHEEELLRQLIRGDIAGYEVLFHKYYPTFFAFIKGMTKETVVAEDITQNIFMKVWLNRERLDAA”: -0.0635. Under “HMIKRETNDNPVDPASLSLGDRVKILTLNQNGEIISLPDEKGLLQVQVGIMKIGVNVSDIMLI” stands -0.0513. Next, “HMTKQRSAIMNLLAERNTPLTAEEIGEAIAPSYPKLALSTVYRNLELFTNAGLLEKSFFQDGITRYSLTK”: -0.429; “HMGDITIPDLQGMSFDQAREKLKALGLSIGKISYTSDTSKDDGVVISQGLQAGGKASKGATVDITINET”: 0.0588. Regarding “HMAPRSSAVYFYLSQVALKKNQPRKAEAMARRGLTVSQDANRRRALWQLILRSGQAQNNTRVIREAQQAL”, the “soluble fraction (log2)” value amounted to 0.19.

Turning to “HMVINVKEILERIKLVKGFHTQIEIARFLGVSKGTISNWLARNSVDFPLVISKLDGVDLNWLFTGIGMPQ”, the “soluble fraction (log2)” value is -3.18. Next, “HMRSRHYRFSTPFLDRLIAEIDWNSDNALSIFNQKLVHFDFLKYFSAIQPGSIVEIENLNFIWTGKRLEAH”: -2.55; “HMSSAYLTVRGIDIDVIYKDIKNLHIAVYPPFGRVRVAAPSHLDDDQVRLAVIQRLTWIKRQRERLRST”: -1.41.

Turning to “HMSENLESEFFGIVVITQTLLQKELRDKPMTVELIRKTVEDVMSKHYSDSSVDKAKVEEELIRRFSTW”, the “soluble fraction (log2)” value was -0.164. Under “HMDEVVVVERGGVQITMSEIDAKIMELPVDVRPSYLDSPERLQNFVSNLLLEKQAAQLKSQY” stands -0.153; under “HMLQIGDEEFIENIVKQVIDENQKAVDDYKKGKEKVMAFLIGQVMKKTKGKVNSEIVEKTIKKL”, -0.262; under “HMYHADLIGLEARSTAGDKLGEVNAVYNFGAGDLIEIKMTDGNLEMLPFTRQYVPTVSIKDGFIIVQM”, -0.628.

In the case of “HMAIKNKNEQLEAIIKFADLRGEFKTADIEELLSIKSSRARLLISELVKIGKLESIGSNRNRRYHIK”, the “soluble fraction (log2)” value was -0.52. Next, “HMEAVIENAAIIKQNSGGYAVRATVNGVDLGMKPVERATALLYFSLTDKLEKDRLLSHTLQKTYGDLSA”: -0.254; “HMKRQATLQIGSKRFGMDDLYFKFTVPFEDSEKLGTATIEAYNLSPATRNSIKKGMPIILNAGYEGDI”: -0.225. “HMTINPFSTLAVRELEILHYLLNGHRTKEIATNLGLKMNTVSTIKSNIFEKVKADSFTHLLQLAHVHQIS”: the “soluble fraction (log2)” value was -0.888. Next, “HMSSKSDQLYLQLRRRISAMKDGEPFPTVRQLMTEYQVSQSTVTPAINQLKEKGLIEAYVGRGSFVSKK”: -0.615; “HMGASYSQFLDQVDSGNVQKVAFGGDMRGGTSQLTYTTRGGQSSTITAPFDRDLINVLRTKNVEIVQEEP”: 0.139; “HMHLTNIPKGFTPSFDTKQWIVEEFGERYNYDNELKIFINHYRASGTTKSDWQYAFRSWLLRAKKFT”: -2.32. Next, “HMVQDDDPNSVAKFIDQVIESNPEQVEQYRSGKEKVFNFFLGQTMRLSKGKANPDLVSELLKEKLS”: 0.0395; “HMNITHEINVKSKSKIDFLENNKNLAQFFLTKNPNQFNYNLVFSDKSELNIIKEKIESHKDIEDIDIRYG”: 0.0125; “HMTGDIGAEAAKAAALAHAGVTESQTAKMKVDRDWDDGRLEYDVEFDVGRTEYEYTIDGVTGAVLEYEQDI”: 0.0136. Under “HMLLPANLTKSQRNIAERVARGQSNLEIAADLNITERTVKAHLTSIYEKTKTGNRLNLALLINLG” stands -0.442; under “HMKDLSMPDVMGSSLNDAKKALTELGIMDITVRYVESGSSEGSIVGMEPPAGSKFAADGKVVLQVSSGS”, 0.351. For the sequence “HMIKISDYLSEEDLNFIKEMEKIYPYFDFDSEGNLILTKSIDELKDKYGFDEAFVSRLDTVLNSR”, the “soluble fraction (log2)” value came to 0.0178. Consider “HMELPPLEPIDRILVVQQPINIREQPGVLAKKIGRVSSGETLTILAKVSGQDWYFVETDNGGRGYVFKRV”, for which the “soluble fraction (log2)” value was -0.555. Under “HMDDPWHNLANAIVAVAADDYRSALRNEDEGLLKSLELFFHSEWYRILTDVDADRLLGMLRRERS” stands -1.62. Next, “HMKAGEDAVQKAVLEAVAESAAAVADYKAGSERALNFIVGKVMKKTRGKASAAEVHRLVREEVDR”: 0.0904. Under “HMVLALRGIVQGGAEPLVILSDGRTSQSLAVGERFLAYEVVEIGRTGVRLRGPEGEIWLAMASF” stands -0.322; under “HMDVQPTTTKTMFYTVQQGETLFSISRKFGISVEEITKKNPLASSGLTVGMELLLPEKKEINSTIQS”, 0.265. As to “HMEYKNYYDSPVGRLELLSDGVSLTAVLFENQQGDGTREENTSLAIFKEATQWLDAYFKGDNPEITIPL”, the “soluble fraction (log2)” value was 0.0756. As for “HMRSEILNLLREKSPQPVSGQDLANHFGITRTAVWKHIQSLKKMGYGIEAYTKKGYVLVSVPN”, the “soluble fraction (log2)” value was -0.0638. Under “HMSTKRQKELLEYVDRFITEHGYGPSYREIMNAIGYKSVSTVAIHIDGLIAKGYLRKRDNSARSLEVV” stands -0.716. Under “HMLKLTDRQKVILSILMSDGEKTASWIASQLGVGLRSVQLDLSYLRNNGFIKKASKSTHSAWIVLKK” stands -2.5; under “HMNESPVLAVLTPTERKVASLVAEGLTNQAIAARMILAEGTVKNHVSTLLHKLQAPDRTALALTLYKAFQ”, -0.469. Consider “HMQVEYTRGELLQDLKEENVLYATITPSRETPTGEVDFVFKDKSIKTLYVTDVSEIEGLLMDYGIDPEVKK”, for which the “soluble fraction (log2)” value is -0.0511.

Regarding “HMTETTTVPKLKGLTKDEAEDAAKSSKIKLEFIDEISKTVEAGVIIKQEKDEGETVNAGDTVKVYVSIGT”, the “soluble fraction (log2)” value turned out to be 0.218.

For the sequence “HMNVSVSITKELQVYINDERISSSALESTLKSKLAGIENPTIILRAEEGVPIEKAVNVMDIANRNRYKIVL”, the “soluble fraction (log2)” value is -0.522. Take “HMKKSGFFSAGDRIQLTDNKGRQYSFNITEGKEFHTHQGFIKHDDLIGMPEGSVVSINSTTGVVQKFMAF”: the “soluble fraction (log2)” value was -0.164.

Take “HMYRPLYQQVYDFLVKQIAAGEWGPGESLPSEQALAGRLNVSQGTVRKALDALAADSLIDRRQGKGTYVAE”: the “soluble fraction (log2)” value was -0.0221.

As for “HMENDPYEILGIARSASDDEIKAKYRALTRENHPDILMAKGVPQEFIDLANEKMAVINAAYDKIEKER”, the “soluble fraction (log2)” value is 0.292.

Turning to “HMGESEKTLELVSQKDALVDEAFFFVRFQALLESNKTKGAQDLLDQSNHLSAAKLLQANAYLDIV”, the “soluble fraction (log2)” value worked out at 0.119.

For the sequence “HMEAKSSTKALLDVVLGRNGVSTANVAKSLNISVQNASTRLKKLSSEGVIMRSEVSSPTGGIEFIYS”, the “soluble fraction (log2)” value is -0.0504. Next, “HMQFHQDNYALEFIRDLQPVDGAIILSRFKQFDLVELEKAKKIKFSDEHMAWTLYDYDIKKIN”: -2.3; “HMNNIIEQIKADIKKLEEKLDKSSENALNKLEKDYSSLSTESKKKLDDAGYGARIKALRVKFAALSTQ”: 0.0666; “HMNARSTSYSDFIARVDKDEVASVRLDGETVTYQAADGTTYTTVKPESDPIAERLIAKGIEVNVVRQ”: -0.49.

As for “HMNNISKKIKELREQNNITQNKLANDLFIKQQTVAQWENGSRALKADSIISLAKYFNVSTDYLLGLTEN”, the “soluble fraction (log2)” value was -0.339. Under “HMFQNYTDAVVVASKTFFYNMPDESTRKSAYLIQGDRIMVEKSQRNFVYVTFTNEASGRTTTGWLKSDDLE” stands -2.9; under “HMTDFDPDGREKLIKVQKALHFNNHQLADALRVGQATFSSYIYGRVAAGVPVRVVKAAEDLLKNSKATV”, -0.303. Regarding “HMIDAKTTLQELTQKSGKKPEYRLIKIEGPDHLRRFTVEVFIDGQSMGTGTGHSKKEAEQNAANFALKNLQ”, the “soluble fraction (log2)” value was 0.0235. On to “HMKTAWDELNEVIEAYRGQESALIEVLHKAQEIMGYLPRDVQEAIAEGLHVPLNKVYGVVSFYHHFSV”, for which the “soluble fraction (log2)” value came to 0.178. Next, “HMSRDYKTELQERLQVNGPVKIEYQVIAEDESKPSFKVQLLVNDKKISEGQGRNKKAAEQQAAQAAL”: 0.0625; “HMEEFDLNAYITKINSAATLNALKQAYAEANSAALSVKDKDAQRKIIVEKDKRKAELIQETAG”: 0.31. Under “HMGEFVQLKNRTGSVIEAKILNYQNGKVKLQRKDGVIFVVPISIFDRMSSSIIENKAKEMDSF” stands 0.00542.

For “HMNDVLVGAIPESASGSRLDKVMPSVFPPYSRSQLQVWLKQGRILMGNGIPSPRLIVSGGEVLSLVVPELP”, the “soluble fraction (log2)” value is -0.971. Next, “HMTRQKEAILALLTDSRGEALSASELLARLTRSGSSIGRTTVYRLLSQLVDDGVVRAWRDASRGITLYELS”: -0.113; “HMRLREETRKVDKTGLIQVDGRHYRVPDEYSQKDVQILMDDNSIMVYRKGDFVIELDKETSVYMPH”: 0.214.

For the sequence “HMQVVVEKSKEKVIISGNQYYIHIVKKGETAFSIAKAYGITVDELVKNNPSAATVLKEGQALRIPVVE”, the “soluble fraction (log2)” value was determined as 0.119. Under “HMGNVRSWKGWTSAGGTRVQMRQGDSINSMARRYGVPIQAIVAVNGIDDPAKVQPGQSVIIPTYVY” stands 0.0448; under “HMDLIEVLAQDTIKKIYNTYVAYKNKVDVFYVAFSGGKDSIVTLDLVQRTLPHNEFKVLFGDTGM”, 0.133; under “HMETSIQFIRLEIGHNHPWVNQTLKEIPTIPGTLIAAVLRGDEDQAIIPKGDTLLKEGDSVIIGAKEYQD”, -0.919. As for “HMNISRESLIGQILATLNKNPEEGFNYKQIAKRLNITDSPGRQMISDLLRELSKHGSLQEISHGKYKIKV”, the “soluble fraction (log2)” value was -0.226. Under “HMGGDFVEHLKDLASEAPVIRLVNTIIGRVIDLRASDIHLEPFDDGLHVRYRVDGVIHPGELVPPRLS” stands 0.0558.
